Test results taken from US20160137709A1 (AMRYT PHARMACEUTICALS, published 2016).

T1: chimeric Hu-Leptin/Mu-EPO receptor (human; mouse, UniProt P48357 22-839; P14753 250-507)
T1 sequence (looked up): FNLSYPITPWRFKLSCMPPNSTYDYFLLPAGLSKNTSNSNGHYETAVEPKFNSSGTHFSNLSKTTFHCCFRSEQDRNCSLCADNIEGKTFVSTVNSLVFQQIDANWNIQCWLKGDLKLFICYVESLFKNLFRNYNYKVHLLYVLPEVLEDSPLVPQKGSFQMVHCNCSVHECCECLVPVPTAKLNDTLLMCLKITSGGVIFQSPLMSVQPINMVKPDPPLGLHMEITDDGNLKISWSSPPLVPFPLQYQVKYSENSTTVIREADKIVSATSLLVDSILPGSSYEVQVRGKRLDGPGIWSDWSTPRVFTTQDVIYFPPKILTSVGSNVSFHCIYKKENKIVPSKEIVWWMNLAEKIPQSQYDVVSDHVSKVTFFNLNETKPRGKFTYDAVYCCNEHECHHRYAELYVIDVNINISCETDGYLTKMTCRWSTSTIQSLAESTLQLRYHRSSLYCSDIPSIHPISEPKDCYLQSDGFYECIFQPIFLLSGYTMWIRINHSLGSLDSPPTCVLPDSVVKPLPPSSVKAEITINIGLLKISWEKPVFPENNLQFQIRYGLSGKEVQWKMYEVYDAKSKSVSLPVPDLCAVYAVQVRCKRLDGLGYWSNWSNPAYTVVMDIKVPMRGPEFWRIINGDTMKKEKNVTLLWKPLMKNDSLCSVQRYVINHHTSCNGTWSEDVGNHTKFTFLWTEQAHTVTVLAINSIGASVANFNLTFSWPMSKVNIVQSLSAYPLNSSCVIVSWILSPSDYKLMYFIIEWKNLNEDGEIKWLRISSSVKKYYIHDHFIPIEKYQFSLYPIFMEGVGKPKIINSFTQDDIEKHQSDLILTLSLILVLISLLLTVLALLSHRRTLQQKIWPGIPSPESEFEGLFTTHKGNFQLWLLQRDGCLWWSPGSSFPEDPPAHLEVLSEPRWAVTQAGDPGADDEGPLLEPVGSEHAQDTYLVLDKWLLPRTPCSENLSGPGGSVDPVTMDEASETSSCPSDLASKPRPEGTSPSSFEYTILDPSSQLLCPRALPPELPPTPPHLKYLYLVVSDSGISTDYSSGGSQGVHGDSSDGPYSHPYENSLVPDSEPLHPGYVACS


How the values were obtained:
[1] = molecular target: T1, chimeric Hu-Leptin/Mu-EPO receptor; experiment: cell-based or functional assay
Rat serum albumin = molecular target: T2, Rat serum albumin (rat, UniProt P02770 25-608); experiment: SPR (BioRad ProteOn XPR36), albumin amine-coupled on GLC chip, polypeptide as analyte, 25 C
T2 construct: Amine-coupled to the GLC sensor chip; also called Rat SA; RSA
Method: (§1) All studies were conducted on a BioRad ProteOn XPR36 system using a GLC sensor chip at 25 degrees C. For amine coupling the GLC chip was activated for 5 minutes using a 1:1 mixture of sulfo-NHS/EDC diluted 30-fold from the initial stock in water as shown below. Each albumin sample was diluted to 25 ug/ml in 10 mM Na Acetate pH 5.0 and injected for 5 minutes over separate sensor surfaces. Each surface was then blocked with 1 M ethanolamine pH 8.5. Each albumin was coupled at a density of 2000-5000 in resonance units.
(§2) The binding of an engineered polypeptide was tested using 5 nM as the highest concentration in a three-fold dilution series. The running buffer contained 10 mM HEPES pH 7.4, 150 mM NaCl, 3 mM EDTA and 0.005% tween-20. All samples were tested using a 3-fold dilution series. Each concentration series was tested in duplicate. The dissociation phase for the highest concentration was monitored for 3 hours.

Human serum albumin = molecular target: T3, Human serum albumin (human, UniProt P02768 25-609); experiment: as above
T3 construct: Amine-coupled to the GLC sensor chip; also called Human SA; HSA
Method: as §1, §2

Monkey serum albumin = molecular target: T4, Monkey serum albumin (monkey); experiment: as above
T4 construct: Amine-coupled to the GLC sensor chip; also called Monkey SA
Method: as §1, §2

Dog serum albumin = molecular target: T5, Dog serum albumin (dog, UniProt P49822 25-608); experiment: as above
T5 construct: Amine-coupled to the GLC sensor chip; also called Dog SA
Method: as §1, §2

Mouse serum albumin = molecular target: T6, Mouse serum albumin (mouse, UniProt P07724 25-608); experiment: as above
T6 construct: Amine-coupled to the GLC sensor chip; also called Mouse SA
Method: as §1, §2

T5 sequence (P49822 25-608 limits assumed): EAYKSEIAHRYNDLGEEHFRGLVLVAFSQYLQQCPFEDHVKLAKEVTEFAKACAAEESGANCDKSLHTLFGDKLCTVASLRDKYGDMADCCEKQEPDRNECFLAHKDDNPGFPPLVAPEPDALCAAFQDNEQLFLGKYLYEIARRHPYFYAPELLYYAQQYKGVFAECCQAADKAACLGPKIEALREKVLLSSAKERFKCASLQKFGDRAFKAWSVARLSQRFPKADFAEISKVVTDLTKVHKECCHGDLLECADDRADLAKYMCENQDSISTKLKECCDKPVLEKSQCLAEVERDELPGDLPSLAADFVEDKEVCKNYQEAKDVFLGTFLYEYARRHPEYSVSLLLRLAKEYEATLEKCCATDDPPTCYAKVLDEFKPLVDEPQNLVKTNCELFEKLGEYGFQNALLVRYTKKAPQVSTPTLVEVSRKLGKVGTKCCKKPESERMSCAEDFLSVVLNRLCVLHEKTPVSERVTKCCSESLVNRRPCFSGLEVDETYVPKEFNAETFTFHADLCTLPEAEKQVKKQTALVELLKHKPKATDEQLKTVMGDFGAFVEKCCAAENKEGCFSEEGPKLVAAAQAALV
T3 sequence (P02768 25-609 limits assumed): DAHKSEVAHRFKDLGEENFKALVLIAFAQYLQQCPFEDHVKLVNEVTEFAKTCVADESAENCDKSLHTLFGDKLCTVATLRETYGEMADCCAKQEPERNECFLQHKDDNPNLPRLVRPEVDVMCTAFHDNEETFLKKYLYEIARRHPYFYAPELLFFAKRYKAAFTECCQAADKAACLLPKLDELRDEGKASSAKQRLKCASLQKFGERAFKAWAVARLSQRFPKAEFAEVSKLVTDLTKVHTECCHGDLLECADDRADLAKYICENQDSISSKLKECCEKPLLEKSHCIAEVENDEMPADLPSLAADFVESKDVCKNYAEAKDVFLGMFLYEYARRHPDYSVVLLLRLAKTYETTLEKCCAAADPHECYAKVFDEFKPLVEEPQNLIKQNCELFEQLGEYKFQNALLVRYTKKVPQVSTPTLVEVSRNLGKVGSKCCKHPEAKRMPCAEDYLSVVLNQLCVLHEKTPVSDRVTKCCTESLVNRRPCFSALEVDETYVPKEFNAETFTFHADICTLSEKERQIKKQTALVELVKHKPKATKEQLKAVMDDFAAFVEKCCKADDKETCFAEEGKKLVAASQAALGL
T2 sequence (P02770 25-608 limits assumed): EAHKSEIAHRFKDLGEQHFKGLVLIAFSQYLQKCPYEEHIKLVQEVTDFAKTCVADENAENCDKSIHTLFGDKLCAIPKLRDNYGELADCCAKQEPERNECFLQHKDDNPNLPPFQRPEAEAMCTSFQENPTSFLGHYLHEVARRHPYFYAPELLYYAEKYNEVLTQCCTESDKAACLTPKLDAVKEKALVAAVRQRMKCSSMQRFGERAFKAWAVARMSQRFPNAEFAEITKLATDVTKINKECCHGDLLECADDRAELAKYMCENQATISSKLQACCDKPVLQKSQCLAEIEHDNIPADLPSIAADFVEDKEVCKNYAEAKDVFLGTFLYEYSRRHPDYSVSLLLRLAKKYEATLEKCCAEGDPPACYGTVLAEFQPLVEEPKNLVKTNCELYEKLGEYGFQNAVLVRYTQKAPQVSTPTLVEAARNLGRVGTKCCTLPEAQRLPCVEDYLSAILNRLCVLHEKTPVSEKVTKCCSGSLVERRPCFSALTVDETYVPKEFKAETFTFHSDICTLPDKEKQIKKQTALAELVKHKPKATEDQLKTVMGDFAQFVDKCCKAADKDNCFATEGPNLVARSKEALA
T4 sequence (A2V9Z4 25-608): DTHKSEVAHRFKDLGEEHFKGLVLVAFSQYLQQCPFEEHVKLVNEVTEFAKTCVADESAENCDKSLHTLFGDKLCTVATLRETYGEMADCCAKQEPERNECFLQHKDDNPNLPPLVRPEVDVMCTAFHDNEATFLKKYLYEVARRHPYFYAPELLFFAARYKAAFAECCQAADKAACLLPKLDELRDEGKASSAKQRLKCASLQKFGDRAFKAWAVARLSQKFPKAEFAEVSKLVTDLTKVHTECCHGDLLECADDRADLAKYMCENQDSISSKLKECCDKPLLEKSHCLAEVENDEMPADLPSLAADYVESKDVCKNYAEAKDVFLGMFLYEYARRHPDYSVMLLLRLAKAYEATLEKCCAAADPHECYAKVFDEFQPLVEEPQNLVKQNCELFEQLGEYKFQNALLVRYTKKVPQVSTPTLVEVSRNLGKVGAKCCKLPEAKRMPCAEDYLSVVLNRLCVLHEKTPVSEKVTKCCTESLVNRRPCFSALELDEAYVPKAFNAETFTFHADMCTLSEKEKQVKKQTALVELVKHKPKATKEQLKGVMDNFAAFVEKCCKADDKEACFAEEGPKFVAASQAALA

Binder	EC50 nM (Obeca STAT5 assay) [1] [nM]	Kd (Rat serum albumin) [nM]	Kd (Human serum albumin) [nM]	Kd (Monkey serum albumin) [nM]	Kd (Dog serum albumin) [nM]	Kd (Mouse serum albumin) [nM]
Cmpd 3 (SEQ ID NO: 55) (other) MVPIQKVQDDTKTLIKTIVTRINDISHTQSVSSKQKVTGLEFIPGLHPILTLSKMDQTLAVYQQILTSMPSRNVIQISNDLENLRDLLHVLAFSKSCHLPQASGLETLESLGGVLEASGYSTEVVALSRLQGSLQDMLQQLDLSPGCTGGGGSASLAEAKVLANRELDKYGVSDFYKRLINKAKTVEGVEALKLHILAALP	0.095	–	–	–	–	–
Cmpd 1 (SEQ ID NO: 53) (other) MLAEAKVLANRELDKYGVSDFYKRLINKAKTVEGVEALKLHILAALPTGGGGASVPIQKVQDDTKTLIKTIVTRINDISHTQSVSSKQKVTGLEFIPGLHPILTLSKMDQTLAVYQQILTSMPSRNVIQISNDLENLRDLLHVLAFSKSCHLPQASGLETLESLGGVLEASGYSTEVVALSRLQGSLQDMLQQLDLSPGC	0.628	–	–	–	–	–
Cmpd 9 (SEQ ID NO: 57) (other) MLAEAKVLANRELDKYGVSDFYKRLINKAKTVEGVEALKLHILAALPTGGGGSGGGSGGGSGGGSASISIEKIQADTKTLTKTIITRIIQLSTQNGVSTDQRVSGLDFIPGNQQFQNLADMDQTLAVYQQILSSLPMPDRTQISNDLENLRSLFALLATLKNCPFTRSDGLDTMEIWGGIVEESLYSTEVVTLDRLRKSLKNIEKQLDHIQGC	0.185	–	–	–	–	–
Cmpd 14 (SEQ ID NO: 60) (other) MLAEAKVLANRELDKYGVSDFYKRLINKAKTVEGVEALKLHILAALPTGGGGSGGGSGGGSGGGSASPIQRVQDDTKTLIKTIITRINDISPPQGVCSRPRVAGLDFIPRVQSVRTLSGMDQILATYQQILTSLQSRNVIQISNDLENLRDLLHVLAFSKSCPVPRARGSDTIKGLGNVLRASVHSTEVVALSRLKAALQDMLRQLDRNPGC	0.406	–	–	–	–	–
Cmpd 4 (SEQ ID NO: 56) (other) MVPIQKVQDDTKTLIKTIVTRINDISHTQSVSSKQKVTGLEFIPGLHPILTLSKMDQTLAVYQQILTSMPSRNVIQISNDLENLRDLLHVLAFSKSCHLPQASGLETLESLGGVLEASGYSTEVVALSRLQGSLQDMLQQLDLSPGCTGGGGSGGGSGGGSGGGSASLAEAKVLANRELDKYGVSDFYKRLINKAKTVEGVEALKLHILAALP	0.103	–	–	–	–	–

Results, then the binder that gave them:

EC50 nM (Obeca STAT5 assay) [1] [nM]	Kd (Rat serum albumin) [nM]	Kd (Human serum albumin) [nM]	Kd (Monkey serum albumin) [nM]	Kd (Dog serum albumin) [nM]	Kd (Mouse serum albumin) [nM]	Binder
0.427	< 0.002	0.012	0.017	0.04	0.277	Compound 15 (SEQ ID NO: 61) (other, also called Cmpd 15; ABD1-HuSeal) MLAEAKVLANRELDKYGVSDFYKRLINKAKTVEGVEALKLHILAALPTGGGGSGGGSGGGSGGGSASPIQRVQDDTKTLIKTIITRINDISPPQGVSSRPRVAGLDFIPRVQSVRTLSGMDQILATYQQILTSLQSRNVIQISNDLENLRDLLHVLAFSKSCPVPRARGSDTIKGLGNVLRASVHSTEVVALSRLKAALQDMLRQLDRNPGC
0.322	–	–	–	–	–	Cmpd 18 (SEQ ID NO: 64) (other) MLAEAKVLANRELDKYGVSDYYKNIINRAKTVEGVRALKLHILAALPTGGGGSGGGSGGGSGGGSASVPIQKVQDDTKTLIKTIVTRINDISHTQSVSSKQKVTGLEFIPGLHPILTLSKMDQTLAVYQQILTSMPSRNVIQISNDLENLRDLLHVLAFSKSCHLPQASGLETLESLGGVLEASGYSTEVVALSRLQGSLQDMLQQLDLSPGC
0.53	0.033	0.056	0.158	0.358	1.97	Compound 2 (SEQ ID NO: 54) (other, also called Cmpd 2; ABD1-A500) MLAEAKVLANRELDKYGVSDFYKRLINKAKTVEGVEALKLHILAALPTGGGGSGGGSGGGSGGGSASVPIQKVQDDTKTLIKTIVTRINDISHTQSVSSKQKVTGLEFIPGLHPILTLSKMDQTLAVYQQILTSMPSRNVIQISNDLENLRDLLHVLAFSKSCHLPQASGLETLESLGGVLEASGYSTEVVALSRLQGSLQDMLQQLDLSPGC
0.411	–	–	–	–	–	Cmpd 16 (SEQ ID NO: 62) (other) MLAEAKVLANRELDKYGVSDFYKRLINKAKTVEGVEALKLHILAALPTGPIQRVQDDTKTLIKTIITRINDISPPQGVCSPRVAGLDFIPRVQSVRTLSGMDQILATYQQILTSLQSRNVIQISNDLENLRDLLHVLAFSKSCPVPRARGSDTIKGLGNVLRASVHSTEVVALSRLKAALQDMLRQLDRNPGC
